Molecular target: T1, ß-lactoglobulin (Bos taurus, UniProt P02754)
T1 sequence (P02754 17-178): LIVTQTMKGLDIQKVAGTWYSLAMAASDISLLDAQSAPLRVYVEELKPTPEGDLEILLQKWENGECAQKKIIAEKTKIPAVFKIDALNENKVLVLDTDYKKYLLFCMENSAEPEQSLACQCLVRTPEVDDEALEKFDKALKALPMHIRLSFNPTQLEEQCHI
Assay: Chaperone activity assay: heat-induced BLG aggregation, Tol3/S25 readout
Assay type: biochemical
Conditions: 0.4 mg/ml HSP 27, 8 mg/ml ß-lactoglobulin (mass ratio 1:20), 68° C.
Protocol: Aggregation of ß-lactoglobulin was monitored in the presence or absence of the chaperone HSP 27. Aggregation of 8 mg/ml ß-lactoglobulin was monitored using 1.25 μM Tol3 and 1.25 μM S25 in PBS, pH 7.4 with 2.5 mM EDTA and 0.05% sodium azide. When the chaperone HSP 27 was added it was added to a final concentration of 0.4 mg/ml. HSP 27 was also run in the absence of R-lactoglobulin as a control. Aggregation was initiated by heating the protein solution to 68° C. in a 96 well half-volume clear plate (Biomol international, Inc). The fluorescence intensity was then recorded every 2 minutes, with shaking between reads. The excitation wavelength was set to 550 nm and the emission was set to 610 nm on a BMG Fluorstar plate reader. The fluorescence intensity of the starting point was subtracted from the remaining points. […] Since Hsp 27 is binding with unfolded BLG intermediate, thus preventing protein aggregation, these styryl cyanine dyes are detecting protein aggregation, as opposed to unfolding.

Substance: Hsp 27: heat shock protein, chaperone
- Effect on heat-induced aggregation of BLG: significantly prevent the aggregation of BLG

— patent US9932479B2, “Dyes and compositions, and processes for using same in analysis of protein aggregation and other applications” (Enzo Biochem, Inc., priority 2009, dated 2018)
